Data: US20220218834A1, “APOHEMOGLOBIN-HAPTOGLOBIN COMPLEXES AND METHODS OF USING THEREOF” (OHIO STATE INNOVATION FOUNDATION, priority 2019, published 2022)
Several values for one entry are separate records, joined by “and”; a condition that tells them apart may be missing. Identical values can stand only once. Marks after values point to notes of the source that are not given here. Each block holds one molecule with its values, some of them ahead of it.

Columns and labels:
[1] = O2 equilibrium binding curves of rHb and native Hb (Hemox analyzer); assay type: biochemical; details: 37° C.; for P50: O2 affinity; for N (cooperativity coefficient n): O2 equilibrium
Procedure: rHb Analysis. Various liganded forms of rHb were analyzed via UV-Vis spectroscopy and compared against native Hb. The oxy-rHb and oxyHb equilibrium binding curves were measured using a Hemox analyzer (TCS Scientific Corp., New Hope, Pa.) at 37° C. The spectra of rHb was measured after one day reaction with excess heme (stage 1), after reduction and diafiltration with the modified HEMOX buffer (stage 2), after placing the rHb mixture under a CO atmosphere (stage 3), after heating the CO-rHb mixture and removing precipitate (stage 4), and after re-oxygenating the rHb sample (stage 5). Spectral deconvolution software was developed in the Python programming language (Python Software Foundation Beaverton, Oreg.) using the non-linear least squares function curve_fit of the SciPy package to determine the fraction of various liganded forms of rHb that contribute to the final spectra of the rHb mixture (i.e. containing metHb, hemichrome, oxyHb, HbCO and heme).

[2] = Specificity of Al-PC binding to proteins (UV-visible absorbance at 680 nm); details: absorbance at 680 nm after Al-PC addition in PBS
Procedure: The stock Al-PC solution was diluted 100× into 100% EtOH.
The concentrations of Hp, HSA, Hb and rHb in solution were 1.0 mg/mL, 0.35 mg/ml (and 3.5 mg/ml), 0.35 mg/mL, and 0.33 mg/mL respectively.

[3] = ApoHb stability during storage (DCNh activity assay, total protein, RP-HPLC); assay type: physicochemical; details: for effect of time on apoHb activity or total protein: stored at −80° C.
Procedure: The extinction coefficients of DCNh and rHbCN were 85 mM^−1 cm^−1 and 114 mM^−1 cm^−1, respectively.
Three TFF-apoHb batches were prepared. […] These groups consisted of unconcentrated, concentrated and lyophilized apoHb. […] The remainder of the batch was either sent to be lyophilized or to be concentrated to […]. […] The lyophilized powder was stored in a closed container at −80° C. […] These time intervals were chosen to capture relevant changes in activity at each storage condition. […] Thus, after initial measurements on a weekly basis, the insignificant changes lead to longer intervals between measurements. Statistical analysis was performed on JMP Pro v 12.2.2 (SAS Institute, Cary, N.C.) and measured concentrations were compared to the initial time point values of each batch. A linear fit with the logarithmic value of the concentration was used to examine the effect of time with the ANOVA test. For time point differences, time was considered as discrete and the TUKEY HSD test was performed.
Reverse Phase Chromatography. Reverse phase (RP) chromatography was performed with a BioBasic-18 column (Thermo Scientific, Waltham, Mass.) on a Thermo Scientific Dionex Ultimate UHPLC system. The flow rate of the mobile phase was set to 0.75 mL/min. The column was equilibrated with 35% acetonitrile and 65% TFA (0.5 wt %, pH 2.6) for 10 minutes. The gradient was then shifted to 43% acetonitrile over a 1 minute interval. The protein was eluted with an increasing linear gradient of 43 to 47% acetonitrile for 30 minutes. The column was then held at 47% acetonitrile for 20 minutes.

acellular human Hb = target: T1, acellular human Hb (Homo sapiens, UniProt P68871+P69905); experiment: Vascular response to acellular Hb after pretreatment, hamster dorsal window chamber; assay type: in vivo, Golden Syrian Hamsters
T1 construct: Expired units of human red blood cells were generously donated; from tissue; host or cells: expired human red blood cell units; purified in house by tangential flow filtration
T1 sequence (P69905 2-142 limits assumed): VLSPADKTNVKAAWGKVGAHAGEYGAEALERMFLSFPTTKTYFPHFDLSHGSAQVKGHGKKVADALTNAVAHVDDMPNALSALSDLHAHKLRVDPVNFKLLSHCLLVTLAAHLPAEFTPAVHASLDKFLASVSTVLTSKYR
T1 sequence (P68871 2-147 limits assumed): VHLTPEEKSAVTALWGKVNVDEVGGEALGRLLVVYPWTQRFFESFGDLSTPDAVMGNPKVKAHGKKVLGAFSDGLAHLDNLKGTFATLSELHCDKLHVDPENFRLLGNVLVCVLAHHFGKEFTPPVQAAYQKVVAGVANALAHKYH
Procedure: Studies were performed in 55-65 g male Golden Syrian Hamsters (Charles River Laboratories, Boston, Mass.) fitted with a dorsal window chamber. The hamster window chamber model is widely used for microvascular studies without anesthesia. The complete surgical technique has been described previously. Two days after window implantation, arterial and venous catheters filled with heparinized saline solution (30 IU/mL) were implanted into the carotid and jugular vessels. Catheters were tunneled under the skin, exteriorized at the dorsal side of the neck, and securely attached to the window frame.
The unanesthetized animal was placed in a restraining tube with a longitudinal slit from which the window chamber protruded, then fixed to the microscopic stage for transillumination with the intravital microscope (BX51WI, Olympus, Japan). Animals were given 20 minutes to adjust to the tube environment and images were obtained using a CCD camera (4815, COHU, San Diego, Calif.). […]
The MAP and HR were monitored continuously (MP150, Biopac System Inc., Santa Barbara, Calif.). Hct was measured from centrifuged arterial blood samples taken in heparinized capillary tubes. Hb content was determined spectrophotometrically (B-Hemoglobin, Hemocue, Stockholm, Sweden). Arterial blood was collected in heparinized glass capillaries (50 μL) and immediately analyzed for pO2, pCO2, and pH (ABL90; Radiometer America, Brea, Calif.). Arterial Hb saturation was measured using an IL482 CO-Oximeter (Instrumentation Laboratory, Lexington, Mass.).
Arteriolar and venular blood flow velocities were measured using the photodiode cross-correlation method (Photo-Diode/Velocity, Vista Electronics, San Diego, Calif.). The measured centerline velocity (V) was corrected according to blood vessel size to obtain the mean RBC velocity. […] Blood flow (Q) was calculated from the measured values as Q=π/4D^2 V.
Functional capillaries, defined as capillary segments that have transit of at least one RBC in a 60 second period in 10 successive microscopic fields, were assessed in a region of 0.46 mm^2. […]

PolyHb = target: T2, PolyHb (Homo sapiens, UniProt P68871+P69905); experiment: 20% isovolemic exchange transfusion of PolyHb after pretreatment, hamster window chamber; assay type: in vivo, Golden Syrian Hamsters
T2 construct: from tissue; host or cells: human red blood cells; Hb purified and polymerised in house
T2 sequence (P69905 2-142 limits assumed): as the sequence (P69905 2-142 limits assumed) above
T2 sequence (P68871 2-147 limits assumed): as the sequence (P68871 2-147 limits assumed) above
Procedure: Additionally, animals with signs of low perfusion, inflammation, edema, or bleeding in their microvasculature were excluded from the study. Prior to treatment, baseline systemic parameters and microvascular hemodynamics were assessed. […] 20 minutes following the initial treatment, the systemic parameters and microvascular hemodynamics were assessed. Afterward, the animals underwent a 20 percent isovolemic exchange transfusion with a 10 g/dL PolyHb solution. After another 20 minutes, the systemic parameters and microvascular hemodynamics were measured. Mean arterial pressure (MAP) and heart rate (HR) were monitored continuously (MP150, Biopac System Inc., Santa Barbara, Calif.). The sample size of 5 animals per group was calculated based on an expected 10% difference in mean arterial pressure between groups, an α=0.05, and […], and equal enrollment for all groups. Additionally, microhemodynamic measurements contain data from multiple vessels within the field (5-7 arterioles and venules selected at baseline based on visual clarity), improving the power of these measurements. Each experiment is a repeated measures study, so all experimental timepoints are replicated between all animals and groups. Furthermore, each experimental group contains animals from different litters, improving the replication of these studies. Animals were randomly assigned to their respective group before baseline measurements were taken. Each group contains animals from multiple litters of hamsters to improve randomization. Investigators were not blinded to group allocation during data collection or analysis. Blinding is not possible with these solutions as they have distinct colors. Measurements taken are highly quantitative, so blinding should have little impact.
The unanesthetized animal was placed in a restraining tube with a longitudinal slit from which the window chamber protruded, then fixed to the microscopic stage for transillumination with the intravital microscope (BX51WI, Olympus, New Hyde Park, N.Y.). […] Measurements were carried out using a 40× (LUMPFL-WIR, numerical aperture 0.8, Olympus) water immersion objective.
Arteriolar and venular blood flow velocities were measured using the photodiode cross-correlation method (Photo-Diode/Velocity, Vista Electronics, San Diego, Calif.). The measured centerline velocity (V) was corrected according to blood vessel size to obtain the mean RBC velocity. A video image-shearing method was used to measure blood vessel diameter (D). Blood flow (Q) was calculated from the measured values as
Functional capillaries, defined as capillary segments that have RBC transit of at least one RBC in a 60 second period in 10 successive microscopic fields, were assessed in a region of 0.46 mm^2. FCD (mm^−1) is calculated as the total length of RBC perfused capillaries divided by the area (0.46 mm^2).

β-thalassemic mice = details: cited from earlier work

P50 [1]: 11.36 ± 0.87 mm Hg | P50 ([1]; listed as concentrated rHb): 11.36±0.87 mm Hg | N (cooperativity coefficient n) [1]: 2.14 ± 0.17^a | N (cooperativity coefficient n) ([1]; listed as concentrated rHb): 2.14±0.17
Molecule: TFF rHb Concentrated: reconstituted Hb made from concentrated TFF-apoHb

P50 [1]: 11.52±0.02 mm Hg and 11.20 ± 0.43 mm Hg | P50 ([1]; listed as unconcentrated rHb): 11.20±0.43 mm Hg | N (cooperativity coefficient n) ([1]; listed as unconcentrated rHb): 2.27±0.10 | Al-PC binding [2]: no appreciable binding of Al-PC
Molecule: TFF rHb: reconstituted Hb made from TFF-apoHb and heme

Molecule: apoHb: protein produced by removing heme from Hb; made via acidic ethanol tangential flow filtration
loss of apoHb activity during long term storage ([3]; 4° C., −80° C., and lyophilized form): Virtually no loss of apoHb activity | total protein and activity in solution during storage ([3]; 37° C., liquid): quickly lost total protein and activity in solution | P50 and cooperativity coefficient after reconstitution into rHb ([3]; apoHb stored at 4° C. for one month, vs reconstituted right after production): did not show any significant difference | effect of time on apoHb activity or total protein ([3]; lyophilized): did not show a significant effect of time on apoHb activity or total protein | retention of total protein ([3]; one-week storage at 22° C.): 80-90% | oxidative modifications (RP-HPLC) ([3]; stored at 4° C. or at 22° C.): show an additional β-chain peak (βox) | effect of time on activity ([3]; stored at 4° C., unconcentrated): no significant differences were seen after day 10 | oxidative modifications (RP-HPLC) ([3]; stored at −80° C. or lyophilized for over a year): no oxidative modifications were observed | effect of time on apoHb activity or total protein ([3]; both concentrations): no statistically significant effect of time on apoHb activity or total protein | MAP (acellular human Hb; after acellular Hb 10% hypervolemic infusion): elevated MAP compared to baseline and pretreatment | FCD (acellular human Hb; after acellular Hb infusion): FCD decreased | HR (acellular human Hb; after acellular Hb infusion): statistically significant decrease in HR from baseline and pre-treatment | MAP (PolyHb; after PolyHb exchange transfusion): significant increase in MAP | FCD (PolyHb; after PolyHb transfusion): FCD significantly decreased | arteriole and venule diameter (PolyHb; after PolyHb transfusion): significant decrease in relative arteriole and venule diameter compared to the baseline | arteriole and venule fluid velocities and volumetric flow rates (PolyHb; after PolyHb transfusion): the volumetric flow rate in the arterioles and venules decreased | MAP or HR (PolyHb; after administration, prior to transfusion of PolyHb): no significant effect on MAP or HR | FCD (PolyHb; after treatment, before PolyHb transfusion): significant increase in FCD | Al-PC binding [2]: Al-PC bound to apoHb and prevented Al-PC aggregation

B1: Hpx: hemopexin, plasma heme scavenging protein (protein, UniProt P02790 24-462, looked up)
Hemopexin: TPLPPTSAHGNVAEGETKPDPDVTERCSDGWSFDATTLDDNGTMLFFKGEFVWKSHKWDRELISERWKNFPSPVDAAFRQGHNSVFLIKGDKVWVYPPEKKEKGYPKLLQDEFPGIPSPLDAAVECHRGECQAEGVLFFQGDREWFWDLATGTMKERSWPAVGNCSSALRWLGRYYCFQGNQFLRFDPVRGEVPPRYPRDVRDYFMPCPGRGHGHRNGTGHGNSTHHGPEYMRCSPHLVLSALTSDNHGATYAFSGTHYWRLDTSRDGWHSWPIAHQWPQGPSAVDAAFSWEEKLYLVQGTQVYVFLTKGGYTLVSGYPKRLEKEVGTPHGIILDSVDAAFICPGSSRLHIMAGRRLWWLDLKSGAQATWTELPWPHEKVDGALCMEKSLGPNSCSANGPGLYLIHGPNLYCYSDVEKLNAAKALPQPQNVTSLLGCTH
RBC levels (β-thalassemic mice; Hpx treatment alone): did not improve RBC levels | iron levels in the liver (β-thalassemic mice; one month of Hpx treatment alone): increased iron levels in the liver
